The values below come from paper PMC5941273, “DNA-binding miniproteins based on zinc fingers. Assessment of the interaction using nanopores† †Electronic supplementary information (ESI) available. See DOI: 10.1039/c7sc05441f”.

For orientation: Kd means the free concentration of one partner at which half of the binding sites on the other are occupied at equilibrium, for simple one-to-one binding.

The target of one data set is gaga-Hk (UniProt Q08605). Briefly: fluorescence anisotropy. As to conditions: Zn2+, EMSA: 18 mM Tris-HCl pH 7.5, 90 mM KCl, 1.8 mM MgCl2, 0.2 mM TCEP, 9% glycerol, 0.11 mg/mL BSA, 2.2% NP-40, 0.02 mM ZnCl2, 20 C, 75 nM DNA, FA: 20 mM Tris-HCl …. (In general: Fluorescence polarisation rises when a labelled molecule tumbles more slowly, as on binding a larger partner.)
The target in a further data set is Hk-gaga (UniProt Q08605). The data set is described as follows: fluorescence anisotropy. Particulars: Zn2+, EMSA: 18 mM Tris-HCl pH 7.5, 90 mM KCl, 1.8 mM MgCl2, 0.2 mM TCEP, 9% glycerol, 0.11 mg/mL BSA, 2.2% NP-40, 0.02 mM ZnCl2, 20 C, 75 nM DNA, FA: 20 mM Tris-HCl ….
The target in a further data set is gaga-Hk-gaga (UniProt Q08605). The data set is described as follows: fluorescence anisotropy. Particulars: no calf thymus DNA; Zn2+; EMSA: 18 mM Tris-HCl pH 7.5, 90 mM KCl, 1.8 mM MgCl2, 0.2 mM TCEP, 9% glycerol, 0.11 mg/mL BSA, 2.2% NP-40, 0.02 mM ZnCl2, 20 C, 75 nM DNA; FA: 20 mM Tris-HCl ….
The target in data set [1] is T1, gaga (GAGA Cys2-His2 zinc finger peptide) (UniProt Q08605 337-367).
T1 chain: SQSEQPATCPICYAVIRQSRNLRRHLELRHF
The data set is described as follows: EMSA; Zn2+; 1000 nM; EMSA: 18 mM Tris-HCl pH 7.5, 90 mM KCl, 1.8 mM MgCl2, 0.2 mM TCEP, 9% glycerol, 0.11 mg/mL BSA, 2.2% NP-40, 0.02 mM ZnCl2, 20 C, 75 nM DNA; FA: 20 mM Tris-HCl pH 7.5, 100 mM NaCl, 0.02 mM ZnCl2, 20 C, 25 nM DNA; nanopore: 100 mM NaCl, 0.02 mM ZnCl2, 20 mM Tris-HCl pH 7.5, 22 C.

Chain of gaga-Hk (Q08605 other isoform, or with tags, fused parts or gaps): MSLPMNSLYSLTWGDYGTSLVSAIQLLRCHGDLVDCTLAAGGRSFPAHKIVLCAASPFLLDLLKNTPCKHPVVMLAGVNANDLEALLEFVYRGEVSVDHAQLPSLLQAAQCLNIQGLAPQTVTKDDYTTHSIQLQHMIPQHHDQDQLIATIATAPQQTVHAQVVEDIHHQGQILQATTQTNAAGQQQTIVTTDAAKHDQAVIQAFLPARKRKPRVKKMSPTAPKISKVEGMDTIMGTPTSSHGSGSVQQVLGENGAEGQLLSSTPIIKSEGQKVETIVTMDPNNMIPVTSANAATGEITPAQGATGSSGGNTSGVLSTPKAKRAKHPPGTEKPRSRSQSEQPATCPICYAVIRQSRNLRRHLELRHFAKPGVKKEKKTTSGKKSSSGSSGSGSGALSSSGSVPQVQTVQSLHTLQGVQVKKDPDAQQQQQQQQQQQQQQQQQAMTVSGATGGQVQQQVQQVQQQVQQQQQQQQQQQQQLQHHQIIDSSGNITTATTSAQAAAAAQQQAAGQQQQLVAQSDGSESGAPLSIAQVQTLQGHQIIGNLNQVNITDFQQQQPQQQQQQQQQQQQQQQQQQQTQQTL
Chain of Hk-gaga (Q08605 other isoform, or with tags, fused parts or gaps): as above
Chain of gaga-Hk-gaga (Q08605 other isoform, or with tags, fused parts or gaps): as above

With “CGCGTCATCAGCGAGAGCGC (double strand) [TMR-cg·GAG]”, the Kd in the data set with gaga-Hk (no calf thymus DNA) was found to be 100 nM. On to “CGCGTCATAATTGAGAGCGC (double strand) [TMR-AT·GAG]”, for which the Kd with Hk-gaga (50 uM bp calf thymus DNA) was 92 nM; with Hk-gaga (no calf thymus DNA), 44 nM; with gaga-Hk (50 uM bp calf thymus DNA), 58 nM; in the data set with gaga-Hk (no calf thymus DNA), 41 nM. Regarding “GAGCTCTCAATTGAGAGCGCG (double strand) [TMR-CTC·AT·GAG]”, the Kd in the data set with gaga-Hk-gaga stood at 35 nM.

B1: cg·GAG (dsDNA)
DNA 1: CGCGTCATCAGCGAGAGCGC
DNA 2: GCGCTCTCGCTGATGACGCG
Take B1: the binding result in data set [1] is reported as “no binding”.

B2: AT·GAG (= cat·AT·GAG) (dsDNA)
DNA 1: CGCGTCATAATTGAGAGCGC
DNA 2: GCGCTCTCAATTATGACGCG
Consider B2, for which the binding result in data set [1] was “no binding”.
